This note sets out measurements from patent US20120094899A1 (Takeda / Millennium, published 2012).

One assay deals with T1, human TGR1 (human, UniProt Q9GZQ4 1-415).
T1 construct: whole, on cells; Assayed as the membrane fraction of TGR1-expressing CHO cells (1.1 mg/mL protein); also called NMUR2; TGR1 receptor
Nature of the assay: displacement of 125I-NMU8 from human TGR1 CHO membrane fraction; IC50 relative to NMU-8.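 Also: competitive binding on TGR1-expressing CHO cell membranes, with compounds tested as DMSO dilution series and incubated for 70 min at 25 °C.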 Background: In a radioligand displacement assay an active substance lowers the binding of a labelled ligand.

The target in the next assay is T2, Human FM3 (human, UniProt Q9HB89 1-426).
T2 construct: whole, on cells; Assayed as the membrane fraction of FM3-expressing CHO cells (1.2 mg/mL protein); also called NMUR1; FM3 receptor
T2 sequence (looked up): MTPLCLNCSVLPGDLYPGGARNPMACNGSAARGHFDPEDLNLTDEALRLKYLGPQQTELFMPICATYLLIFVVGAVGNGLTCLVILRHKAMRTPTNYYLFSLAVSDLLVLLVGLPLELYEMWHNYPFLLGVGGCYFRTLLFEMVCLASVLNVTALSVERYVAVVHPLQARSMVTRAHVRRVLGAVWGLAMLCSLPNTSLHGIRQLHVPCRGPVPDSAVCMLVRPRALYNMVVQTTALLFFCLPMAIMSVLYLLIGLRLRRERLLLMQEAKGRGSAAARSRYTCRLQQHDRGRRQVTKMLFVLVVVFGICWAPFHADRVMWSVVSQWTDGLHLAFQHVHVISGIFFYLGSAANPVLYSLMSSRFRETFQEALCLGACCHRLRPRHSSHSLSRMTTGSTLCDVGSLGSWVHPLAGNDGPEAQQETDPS
Description: displacement of 125I-NMU8 from human FM3 CHO membrane fraction; IC50 relative to NMU-8.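 Also: binding reaction run for 70 min at 25 °C.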

Non-standard residues stand in square brackets, D forms with d. No end group written: not given here. *: point of attachment. Acetyl(2-(piperazin-1-yl)) = O=C(CN1CCNCC1)*; PEG 20 kDa = methoxypolyethylene glycol 20k; PEG 30 kDa = methoxypolyethylene glycol 30k; NMeY = CN[C@@H](Cc1ccc(O)cc1)C(=O)O; NMeR = CN[C@@H](CCCNC(=N)N)C(=O)O; NMeL = CN[C@@H](CC(C)C)C(=O)O; NMeA = CN[C@@H](C)C(=O)O; βAla = NCCC(=O)O

T1 sequence (Q9GZQ4 whole entry): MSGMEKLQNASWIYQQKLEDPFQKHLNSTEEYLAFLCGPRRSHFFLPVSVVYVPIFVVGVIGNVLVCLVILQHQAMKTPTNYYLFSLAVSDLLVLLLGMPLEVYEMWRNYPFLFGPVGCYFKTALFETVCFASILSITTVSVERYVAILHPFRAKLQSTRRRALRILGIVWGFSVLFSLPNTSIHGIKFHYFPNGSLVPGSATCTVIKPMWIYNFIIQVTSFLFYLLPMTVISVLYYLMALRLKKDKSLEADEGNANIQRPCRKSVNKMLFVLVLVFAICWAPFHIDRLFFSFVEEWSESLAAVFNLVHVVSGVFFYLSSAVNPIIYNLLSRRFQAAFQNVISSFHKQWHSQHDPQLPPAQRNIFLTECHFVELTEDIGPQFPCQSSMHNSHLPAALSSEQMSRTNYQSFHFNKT
Description for Human FM3: (§1) 15 mL of homogenized buffer (10 mM NaHCO₃ (pH 7.4), 5 mM EDTA, protease inhibitor=0.5 mM PMSF, 10 μg/mL Pepstatin A, 20 μg/mL Leupeptin, and 4 μg/mL E-64) was added to the obtained cell pellets, the cellular membrane was disrupted using a polytron homogenizer (Kinematica GmbH), centrifugation was conducted for 10 minutes at 1,000 g at 4° C., and the supernatant was collected. This process was further repeated twice, and ultracentrifugation was conducted for 60 minutes at 30,000 rpm at 4° C. Thereafter, 8 mL of homogenized buffer was added to the pellets and suspended homogeneously to prepare a membrane fraction. The protein concentration of the FM3-expressing CHO cellular membrane fraction was 1.2 mg/mL, and the protein concentration of the TGR1-expressing CHO cellular membrane fraction was 1.1 mg/mL.
(§2) Specifically, each of the NMU derivatives and PEG conjugates was dissolved in DMSO so as to prepare 2 μL of each dilution series of the NMU derivatives and PEG conjugates. […] The resulting product was thoroughly mixed, and then a reaction was carried out at 25° C. for 70 minutes.
Description for human TGR1: as §1, §2

B1: PEG20k-NpipAc0,Trp2,Ala6-NMU-8 (Compound T) (peptide)
peptide: {PEG 20 kDa-Acetyl(2-(piperazin-1-yl))}-YWLFRARN-NH2
notes: also called PEG20k-NpipAc-Trp2,Ala6-NMU8
On to B1, for which the IC50 ratio with human TGR1 was 55 ratio to NMU-8 (=1).

B2: β-Ala0,NMeTyr1,NMeLeu3,NMeArg5-NMU-8 (Compound 16) (peptide)
peptide: [βAla][NMeY]F[NMeL]F[NMeR]PRN-NH2
modifications: N-terminus assumed
SMILES: CC(C)C[C@@H](C(=O)N[C@@H](Cc1ccccc1)C(=O)N(C)[C@@H](CCCNC(=N)N)C(=O)N1CCC[C@H]1C(=O)N[C@@H](CCCNC(=N)N)C(=O)N[C@@H](CC(N)=O)C(N)=O)N(C)C(=O)[C@H](Cc1ccccc1)NC(=O)[C@H](Cc1ccc(O)cc1)N(C)C(=O)CCN
notes: also called β-Ala0,NMeTry1,NMeLeu3,NMEArg5-NMU-8
On to B2, for which the IC50 ratio with human TGR1 is 27 ratio to NMU-8 (=1).

B3: β-Ala0,NMeArg5-NMU-8 (Compound 13) (peptide)
peptide: [βAla]YFLF[NMeR]PRN-NH2
modifications: N-terminus assumed
SMILES: CC(C)C[C@H](NC(=O)[C@H](Cc1ccccc1)NC(=O)[C@H](Cc1ccc(O)cc1)NC(=O)CCN)C(=O)N[C@@H](Cc1ccccc1)C(=O)N(C)[C@@H](CCCNC(=N)N)C(=O)N1CCC[C@H]1C(=O)N[C@@H](CCCNC(=N)N)C(=O)N[C@@H](CC(N)=O)C(N)=O
On to B3, for which the IC50 ratio with Human FM3 was 0.46 ratio to NMU-8 (=1).

B4: β-Ala0,Trp2,NMeAla6-NMU-8 (Compound 17) (peptide)
peptide: [βAla]YWLFR[NMeA]RN-NH2
modifications: N-terminus assumed
SMILES: CC(C)C[C@H](NC(=O)[C@H](Cc1c[nH]c2ccccc12)NC(=O)[C@H](Cc1ccc(O)cc1)NC(=O)CCN)C(=O)N[C@@H](Cc1ccccc1)C(=O)N[C@@H](CCCNC(=N)N)C(=O)N(C)[C@@H](C)C(=O)N[C@@H](CCCNC(=N)N)C(=O)N[C@@H](CC(N)=O)C(N)=O
Turning to B4, the IC50 ratio with human TGR1 was 1.9 ratio to NMU-8 (=1); with Human FM3 it was 92 ratio to NMU-8 (=1).

With {PEG 20 kDa-βAla}-YELFR[NMeA]RN-NH2 [PEG20k-NH-β-Ala0,Glu2,NMeAla6-NMU-8 (Compound R)], the IC50 ratio in the assay with human TGR1 is 540 ratio to NMU-8 (=1).

B5: NpipAc0,Glu2,Ala6-NMU-8 (Compound 19) (peptide)
peptide: {Acetyl(2-(piperazin-1-yl))}-YELFRARN-NH2
SMILES: CC(C)C[C@H](NC(=O)[C@H](CCC(=O)O)NC(=O)[C@H](Cc1ccc(O)cc1)NC(=O)CN1CCNCC1)C(=O)N[C@@H](Cc1ccccc1)C(=O)N[C@@H](CCCNC(=N)N)C(=O)N[C@@H](C)C(=O)N[C@@H](CCCNC(=N)N)C(=O)N[C@@H](CC(N)=O)C(N)=O
notes: also called 2-(piperazin-1-yl)acetyl-[Glu2,Ala6]-NMU8
For the molecule B5, the IC50 ratio with human TGR1 was 25 ratio to NMU-8 (=1); with Human FM3, 24000 ratio to NMU-8 (=1).

B6: PEG20k-NpipAc0,Glu2,NMeAla6-NMU-8 (Compound U) (peptide)
peptide: {PEG 20 kDa-Acetyl(2-(piperazin-1-yl))}-YELFR[NMeA]RN-NH2
notes: also called PEG20k-NpipAc-Glu2,NMeAla6-NMU8
For the molecule B6, in the assay with human TGR1, the IC50 ratio was 360 ratio to NMU-8 (=1).

B7: NpipAc0,Glu2,NMeAla6-NMU-8 (Compound 21) (peptide)
peptide: {Acetyl(2-(piperazin-1-yl))}-YELFR[NMeA]RN-NH2
SMILES: CC(C)C[C@H](NC(=O)[C@H](CCC(=O)O)NC(=O)[C@H](Cc1ccc(O)cc1)NC(=O)CN1CCNCC1)C(=O)N[C@@H](Cc1ccccc1)C(=O)N[C@@H](CCCNC(=N)N)C(=O)N(C)[C@@H](C)C(=O)N[C@@H](CCCNC(=N)N)C(=O)N[C@@H](CC(N)=O)C(N)=O
notes: also called 2-(piperazin-1-yl)acetyl-[Glu2,NMeAla6]-NMU8
In the case of B7, the IC50 ratio with human TGR1 was 5.5 ratio to NMU-8 (=1); with Human FM3, 6500 ratio to NMU-8 (=1).

B8: β-Ala0,Glu2,NMeAla6-NMU-8 (Compound 18) (peptide)
peptide: [βAla]YELFR[NMeA]RN-NH2
modifications: N-terminus assumed
SMILES: CC(C)C[C@H](NC(=O)[C@H](CCC(=O)O)NC(=O)[C@H](Cc1ccc(O)cc1)NC(=O)CCN)C(=O)N[C@@H](Cc1ccccc1)C(=O)N[C@@H](CCCNC(=N)N)C(=O)N(C)[C@@H](C)C(=O)N[C@@H](CCCNC(=N)N)C(=O)N[C@@H](CC(N)=O)C(N)=O
On to B8, for which the IC50 ratio in the assay with human TGR1 was 31 ratio to NMU-8 (=1); in the assay with Human FM3, 26000 ratio to NMU-8 (=1).

B9: PEG20k-NpipAc0,Glu2,Ala6-NMU-8 (Compound S) (peptide)
peptide: {PEG 20 kDa-Acetyl(2-(piperazin-1-yl))}-YELFRARN-NH2
notes: also called PEG20k-NpipAc-Glu2,Ala6-NMU8
On to B9, for which the IC50 ratio with human TGR1 was 750 ratio to NMU-8 (=1).

B10: 2-(piperazin-1-yl)acetyl-Arg3-NMU8 (Compound 10) (peptide)
peptide: {Acetyl(2-(piperazin-1-yl))}-YFRFRPRN-NH2
SMILES: N=C(N)NCCC[C@H](NC(=O)[C@H](Cc1ccccc1)NC(=O)[C@H](Cc1ccc(O)cc1)NC(=O)CN1CCNCC1)C(=O)N[C@@H](Cc1ccccc1)C(=O)N[C@@H](CCCNC(=N)N)C(=O)N1CCC[C@H]1C(=O)N[C@@H](CCCNC(=N)N)C(=O)N[C@@H](CC(N)=O)C(N)=O
notes: also called NpipAc-Arg3-NMU-8
Turning to B10, the IC50 ratio was 0.66 ratio to NMU-8 (=1) with human TGR1 and 0.27 ratio to NMU-8 (=1) with Human FM3.

On to {PEG 30 kDa-βAla}-RFLFRPRN-NH2 (also called PEG-NH-β-Ala0,Arg1-NMU-8) [PEG30k-NH-β-Ala0,Arg1-NMU-8 (Compound G)], for which the IC50 ratio in the assay with human TGR1 was 8.5 ratio to NMU-8 (=1); in the assay with Human FM3, 1.5 ratio to NMU-8 (=1).

B11: β-Ala0,Asp8-NMU-8 (Compound 12) (peptide)
peptide: [βAla]YFLFRPRD-NH2
modifications: N-terminus assumed
SMILES: CC(C)C[C@H](NC(=O)[C@H](Cc1ccccc1)NC(=O)[C@H](Cc1ccc(O)cc1)NC(=O)CCN)C(=O)N[C@@H](Cc1ccccc1)C(=O)N[C@@H](CCCNC(=N)N)C(=O)N1CCC[C@H]1C(=O)N[C@@H](CCCNC(=N)N)C(=O)N[C@@H](CC(=O)O)C(N)=O
In the case of B11, the IC50 ratio with human TGR1 is 2 ratio to NMU-8 (=1); with Human FM3, 2.4 ratio to NMU-8 (=1).

For the molecule {PEG 30 kDa-βAla}-PFLFRPRN-NH2 (also called PEG-NH-β-Ala0,Pro1-NMU-8) [PEG30k-NH-β-Ala0,Pro1-NMU-8 (Compound H)], the IC50 ratio with human TGR1 was 21 ratio to NMU-8 (=1); in the assay with Human FM3 it was 9.4 ratio to NMU-8 (=1).

Regarding {PEG 30 kDa-βAla}-YFQFRPRN-NH2 (also called PEG-NH-β-Ala0,Gln3-NMU-8) [PEG30k-NH-β-Ala0,Gln3-NMU-8 (Compound B)], the IC50 ratio is 7.3 ratio to NMU-8 (=1) with human TGR1 and 1.8 ratio to NMU-8 (=1) with Human FM3.

B12: β-Ala0,Arg3-NMU-8 (Compound 3) (peptide)
peptide: [βAla]YFRFRPRN-NH2
modifications: N-terminus assumed
SMILES: N=C(N)NCCC[C@H](NC(=O)[C@H](Cc1ccccc1)NC(=O)[C@H](Cc1ccc(O)cc1)NC(=O)CCN)C(=O)N[C@@H](Cc1ccccc1)C(=O)N[C@@H](CCCNC(=N)N)C(=O)N1CCC[C@H]1C(=O)N[C@@H](CCCNC(=N)N)C(=O)N[C@@H](CC(N)=O)C(N)=O
On to B12, for which the IC50 ratio with human TGR1 is 0.38 ratio to NMU-8 (=1); with Human FM3 it was 0.07 ratio to NMU-8 (=1).

As to {PEG 30 kDa-Acetyl(2-(piperazin-1-yl))}-YFRFRPRN-NH2 [PEG30k-NpipAc-Arg3-NMU-8 (Compound J)], the IC50 ratio with human TGR1 is 2.6 ratio to NMU-8 (=1); in the assay with Human FM3 it was 2.2 ratio to NMU-8 (=1).

Consider {PEG 20 kDa-Acetyl(2-(piperazin-1-yl))}-YFRFRPRN-NH2 [PEG20k-NpipAc-Arg3-NMU-8 (Compound I)], for which the IC50 ratio is 2.1 ratio to NMU-8 (=1) with human TGR1 and 1.6 ratio to NMU-8 (=1) with Human FM3.

B13: β-Ala0,Gln3-NMU-8 (Compound 2) (peptide)
peptide: [βAla]YFQFRPRN-NH2
modifications: N-terminus assumed
SMILES: N=C(N)NCCC[C@H](NC(=O)[C@@H]1CCCN1C(=O)[C@H](CCCNC(=N)N)NC(=O)[C@H](Cc1ccccc1)NC(=O)[C@H](CCC(N)=O)NC(=O)[C@H](Cc1ccccc1)NC(=O)[C@H](Cc1ccc(O)cc1)NC(=O)CCN)C(=O)N[C@@H](CC(N)=O)C(N)=O
On to B13, for which the results for the IC50 ratio with human TGR1 and with Human FM3 were 3.9 ratio to NMU-8 (=1) and 0.31 ratio to NMU-8 (=1), respectively.

With {PEG 30 kDa-βAla}-YFLFRPRD-NH2 [PEG30k-NH-β-Ala0,Asp8-NMU-8 (Compound L)], the IC50 ratio was 34 ratio to NMU-8 (=1) with human TGR1 and 150 ratio to NMU-8 (=1) with Human FM3.

For YFRFRPRN-NH2 (no linker) [Arg3-NMU-8 (Compound 9)], the IC50 ratio with human TGR1 was 1.9 ratio to NMU-8 (=1); with Human FM3, 0.62 ratio to NMU-8 (=1).

For {PEG 30 kDa-βAla}-YYLFRPRN-NH2 (also called PEG-NH-β-Ala0,Tyr2-NMU-8) [PEG30k-NH-β-Ala0,Tyr2-NMU-8 (Compound E)], the IC50 ratio with human TGR1 is 1.7 ratio to NMU-8 (=1); with Human FM3 it was 8.1 ratio to NMU-8 (=1).

As to {PEG 30 kDa-βAla}-YFVFRPRN-NH2 (also called PEG-NH-β-Ala0,Val3-NMU-8) [PEG30k-NH-β-Ala0,Val3-NMU-8 (Compound D)], the IC50 ratio with human TGR1 was 2.2 ratio to NMU-8 (=1); in the assay with Human FM3, 5.3 ratio to NMU-8 (=1).

Regarding {PEG 30 kDa-βAla}-YFRFRPRN-NH2 (also called PEG-NH-β-Ala0,Arg3-NMU-8) [PEG30k-NH-β-Ala0,Arg3-NMU-8 (Compound C)], the IC50 ratio was 2.6 ratio to NMU-8 (=1) with human TGR1 and 1.7 ratio to NMU-8 (=1) with Human FM3.

B14: β-Ala0,Arg1-NMU-8 (Compound 7) (peptide)
peptide: [βAla]RFLFRPRN-NH2
modifications: N-terminus assumed
SMILES: CC(C)C[C@H](NC(=O)[C@H](Cc1ccccc1)NC(=O)[C@H](CCCNC(=N)N)NC(=O)CCN)C(=O)N[C@@H](Cc1ccccc1)C(=O)N[C@@H](CCCNC(=N)N)C(=O)N1CCC[C@H]1C(=O)N[C@@H](CCCNC(=N)N)C(=O)N[C@@H](CC(N)=O)C(N)=O
Turning to B14, the IC50 ratio was 3.7 ratio to NMU-8 (=1) in the assay with human TGR1 and 0.42 ratio to NMU-8 (=1) with Human FM3.

In the case of {PEG 30 kDa-βAla}-YFLFQPRN-NH2 (also called PEG-NH-β-Ala0,Gln5-NMU-8) [PEG30k-NH-β-Ala0,Gln5-NMU-8 (Compound A)], the IC50 ratio is 9.6 ratio to NMU-8 (=1) in the assay with human TGR1 and 160 ratio to NMU-8 (=1) in the assay with Human FM3.
